Consider two substances from article PMC4326804.

Assay [1] concerns the target His6-tagged nucleocapsid (N) protein of tomato spotted wilt virus (TSWV) (tomato spotted wilt virus (Yunnan isolate)). As to the kind of experiment: cross-linking; 30 ug purified N protein with increasing glutaraldehyde, 37 °C for 5 min, quenched with Tris-HCl pH 7.5; 5-20% SDS-PAGE, Coomassie staining; self-association.
Assay [2] has as its target free-tag TSWV N protein (tomato spotted wilt virus (Yunnan isolate)). Description: native gel or EMSA; 4-16% discontinuous blue native PAGE at 4 °C, cathode buffer 100 mM histidine pH 8.0 with 0.002% Coomassie G-250; purified N protein without PEI treatment (carries E. coli RNA); self-association.

For orientation: stoichiometry N means a count of units in the complex or per binding partner.

Where “and” joins values, the source holds several entries; their conditions need not be identical. Identical values can stand only once. Bounds are passed on as bounds.

For the substance “His6-tagged nucleocapsid (N) protein of tomato spotted wilt virus (TSWV) (natural protein)”, the stoichiometry N in assay [1] was > 3 and 2 and 3.

As to “free-tag TSWV N protein (natural protein)”, the stoichiometry N in assay [2] was 2 and 3 and 4.
